In article PMC10786891, “Massively parallel profiling of RNA-targeting CRISPR-Cas13d”:
Changes are numbered by the printed parent chain.

T1: EsCas13d, nuclease-dead (Eubacterium siraeum, UniProt B0MS50, R295A;H300A;R849A;H854A)
T1 sequence: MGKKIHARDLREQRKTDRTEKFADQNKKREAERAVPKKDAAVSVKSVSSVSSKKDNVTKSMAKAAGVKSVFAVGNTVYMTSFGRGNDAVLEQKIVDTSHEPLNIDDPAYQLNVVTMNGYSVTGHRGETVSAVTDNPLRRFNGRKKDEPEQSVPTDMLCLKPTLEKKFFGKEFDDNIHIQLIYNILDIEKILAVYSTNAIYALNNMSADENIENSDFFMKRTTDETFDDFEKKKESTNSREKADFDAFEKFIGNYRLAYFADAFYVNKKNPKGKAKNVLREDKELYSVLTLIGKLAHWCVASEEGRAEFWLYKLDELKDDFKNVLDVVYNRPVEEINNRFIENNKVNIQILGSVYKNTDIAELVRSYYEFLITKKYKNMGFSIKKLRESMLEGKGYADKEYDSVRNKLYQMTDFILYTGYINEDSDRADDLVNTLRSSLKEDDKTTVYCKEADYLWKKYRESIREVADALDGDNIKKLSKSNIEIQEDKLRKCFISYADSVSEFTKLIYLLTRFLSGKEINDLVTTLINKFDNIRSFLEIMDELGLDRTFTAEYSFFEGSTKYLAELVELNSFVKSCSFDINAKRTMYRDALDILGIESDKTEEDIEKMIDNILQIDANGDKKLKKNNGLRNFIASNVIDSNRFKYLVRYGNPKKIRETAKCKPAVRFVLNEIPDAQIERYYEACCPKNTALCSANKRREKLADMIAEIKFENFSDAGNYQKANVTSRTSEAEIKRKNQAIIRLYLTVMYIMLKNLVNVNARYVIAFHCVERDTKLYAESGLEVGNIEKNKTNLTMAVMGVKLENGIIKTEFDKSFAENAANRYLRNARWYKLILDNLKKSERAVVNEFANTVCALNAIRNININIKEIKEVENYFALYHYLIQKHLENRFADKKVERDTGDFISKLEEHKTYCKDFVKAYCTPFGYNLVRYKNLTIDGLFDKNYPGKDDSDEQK

B1: target 1 MT 5'PFS AAU 3'PFS CAU (mixed)
RNA 1: CACCCGUGCAAAAAUGCAGGGGUCUAAAACUGAGCGGAUAACCUCUCUAUGG
RNA 2: GGGAAUGGAUCCACAUCUACGAAUUCAAUCCAUAGAGAGGUUAUCCGCUCACAUAGAUCGGAAGAGCACACGU
B2: target 1 insU 3' of 22,insA 3' of 5 (mixed)
RNA 1: B1 RNA 1
RNA 2: GGGAAUGGAUCCACAUCUACGAAUUCGUACUCAUAGAGAGGUUAUCCGACUCACCGAGAUCGGAAGAGCACACGU
B3: target 1 MT 5'PFS UCC 3'PFS CUC (mixed)
RNA 1: B1 RNA 1
RNA 2: B1 RNA 2 with A27U, A28C, U29C, A53U, U54C
B4: target 1 MT 5'PFS GAA 3'PFS ACU (mixed)
RNA 1: B1 RNA 1
RNA 2: B1 RNA 2 with A27G, U29A, C52A, A53C
B5: target 1 MT 5'PFS CCU 3'PFS UUC (mixed)
RNA 1: B1 RNA 1
RNA 2: B1 RNA 2 with A27C, A28C, C52U, A53U, U54C
B6: target 1 MT 5'PFS GUC 3'PFS ACC (mixed)
RNA 1: B1 RNA 1
RNA 2: B1 RNA 2 with A27G, A28U, U29C, C52A, A53C, U54C
B7: target 1 MT 5'PFS UCC 3'PFS CUG (mixed)
RNA 1: B1 RNA 1
RNA 2: B1 RNA 2 with A27U, A28C, U29C, A53U, U54G
B8: target 1 MT 5'PFS GGC 3'PFS UUG (mixed)
RNA 1: B1 RNA 1
RNA 2: B1 RNA 2 with A27G, A28G, U29C, C52U, A53U, U54G
B9: target 1 MT 5'PFS GAA 3'PFS ACG (mixed)
RNA 1: B1 RNA 1
RNA 2: B1 RNA 2 with A27G, U29A, C52A, A53C, U54G
B10: target 1 MT 5'PFS GGG 3'PFS AUG (mixed)
RNA 1: B1 RNA 1
RNA 2: B1 RNA 2 with A27G, A28G, U29G, C52A, A53U, U54G
B11: target 1 MT 5'PFS CAC 3'PFS CUG (mixed)
RNA 1: B1 RNA 1
RNA 2: B1 RNA 2 with A27C, U29C, A53U, U54G
B12: target 1 MT 5'PFS CCU 3'PFS UUG (mixed)
RNA 1: B1 RNA 1
RNA 2: B1 RNA 2 with A27C, A28C, C52U, A53U, U54G
B13: target 1 MT 5'PFS GGA 3'PFS CGA (mixed)
RNA 1: B1 RNA 1
RNA 2: B1 RNA 2 with A27G, A28G, U29A, A53G, U54A
B14: target 1 MT 5'PFS GCA 3'PFS GGA (mixed)
RNA 1: B1 RNA 1
RNA 2: B1 RNA 2 with A27G, A28C, U29A, C52G, A53G, U54A
B15: target 1 MT 5'PFS GUC 3'PFS ACG (mixed)
RNA 1: B1 RNA 1
RNA 2: B1 RNA 2 with A27G, A28U, U29C, C52A, A53C, U54G
B16: target 1 MT 5'PFS GGG 3'PFS AUA (mixed)
RNA 1: B1 RNA 1
RNA 2: B1 RNA 2 with A27G, A28G, U29G, C52A, A53U, U54A
B17: target 1 MT 5'PFS GUG 3'PFS GCA (mixed)
RNA 1: B1 RNA 1
RNA 2: B1 RNA 2 with A27G, A28U, U29G, C52G, A53C, U54A
B18: target 1 MT 5'PFS GAA 3'PFS ACC (mixed)
RNA 1: B1 RNA 1
RNA 2: B1 RNA 2 with A27G, U29A, C52A, A53C, U54C
B19: target 1 MT 5'PFS GGG 3'PFS AUU (mixed)
RNA 1: B1 RNA 1
RNA 2: B1 RNA 2 with A27G, A28G, U29G, C52A, A53U
B20: target 1 MT 5'PFS UUA 3'PFS UGA (mixed)
RNA 1: B1 RNA 1
RNA 2: B1 RNA 2 with A27U, A28U, U29A, C52U, A53G, U54A
B21: target 1 MT 5'PFS GUA 3'PFS AUU (mixed)
RNA 1: B1 RNA 1
RNA 2: B1 RNA 2 with A27G, A28U, U29A, C52A, A53U
B22: target 1 MT 5'PFS AGG 3'PFS UCU (mixed)
RNA 1: B1 RNA 1
RNA 2: B1 RNA 2 with A28G, U29G, C52U, A53C
B23: target 1 MT 5'PFS CCU 3'PFS UUA (mixed)
RNA 1: B1 RNA 1
RNA 2: B1 RNA 2 with A27C, A28C, C52U, A53U, U54A
B24: target 1 MT 5'PFS UAU 3'PFS UGC (mixed)
RNA 1: B1 RNA 1
RNA 2: B1 RNA 2 with A27U, C52U, A53G, U54C
B25: target 1 MT 5'PFS GUA 3'PFS AUC (mixed)
RNA 1: B1 RNA 1
RNA 2: B1 RNA 2 with A27G, A28U, U29A, C52A, A53U, U54C
B26: target 1 MT 5'PFS AGG 3'PFS UCG (mixed)
RNA 1: B1 RNA 1
RNA 2: B1 RNA 2 with A28G, U29G, C52U, A53C, U54G
B27: target 1 MT 5'PFS UAA 3'PFS CCG (mixed)
RNA 1: B1 RNA 1
RNA 2: B1 RNA 2 with A27U, U29A, A53C, U54G
B28: target 1 MT 5'PFS UAA 3'PFS CCU (mixed)
RNA 1: B1 RNA 1
RNA 2: B1 RNA 2 with A27U, U29A, A53C
B29: target 1 MT 5'PFS GGC 3'PFS UUU (mixed)
RNA 1: B1 RNA 1
RNA 2: B1 RNA 2 with A27G, A28G, U29C, C52U, A53U
B30: target 1 MT 5'PFS GGG 3'PFS AUC (mixed)
RNA 1: B1 RNA 1
RNA 2: B1 RNA 2 with A27G, A28G, U29G, C52A, A53U, U54C
B31: target 1 MT 5'PFS CUU 3'PFS CAG (mixed)
RNA 1: B1 RNA 1
RNA 2: B1 RNA 2 with A27C, A28U, U54G
B32: target 1 MT 5'PFS GCG 3'PFS UGU (mixed)
RNA 1: B1 RNA 1
RNA 2: B1 RNA 2 with A27G, A28C, U29G, C52U, A53G
B33: target 1 MT 5'PFS GGA 3'PFS CGG (mixed)
RNA 1: B1 RNA 1
RNA 2: B1 RNA 2 with A27G, A28G, U29A, A53G, U54G
B34: target 1 MT 5'PFS GGA 3'PFS CGC (mixed)
RNA 1: B1 RNA 1
RNA 2: B1 RNA 2 with A27G, A28G, U29A, A53G, U54C
B35: target 1 MT 5'PFS ACG 3'PFS UCU (mixed)
RNA 1: B1 RNA 1
RNA 2: B1 RNA 2 with A28C, U29G, C52U, A53C
B36: target 1 insC 3' of 17,insU 3' of 4 (mixed)
RNA 1: B1 RNA 1
RNA 2: B2 RNA 2 with U31C, C32A, A33U, U34A, A35G, G36C, A49C, C50U
B37: target 1 insA 3' of 8,insC 3' of 1 (mixed)
RNA 1: B1 RNA 1
RNA 2: GGGAAUGGAUCCACAUCUACGAAUUCGUACCAUAGAGAGGUUAUACCGCUCACCCGAGAUCGGAAGAGCACACGU
B38: target 1 MT 5'PFS GUA 3'PFS AUA (mixed)
RNA 1: B1 RNA 1
RNA 2: B1 RNA 2 with A27G, A28U, U29A, C52A, A53U, U54A
B39: target 1 MT 5'PFS CAC 3'PFS CUA (mixed)
RNA 1: B1 RNA 1
RNA 2: B1 RNA 2 with A27C, U29C, A53U, U54A

Biological target: T1, EsCas13d, nuclease-dead
Assay: crRNA (strand 1, pre-loaded); Mg2+; 40 mM Tris-HCl pH 7.5, 150 mM NaCl, 6 mM MgCl2, 1 mM DTT, 0.1% Tween-20, 0.2 mg/ml BSA; 25 C; 10 min per concentration, then washed
Conditions: tags: His6-TwinStrep-SUMO cleaved; N-terminal SNAP kept (SNAP-Surface 488); label: 3' end held by stalled T7 RNA polymerase

Binder | Kd [nM]
B1 | 100 ± 45
B2 | 18.8 ± 1.6
B3 | ~24
B4 | 34 ± 12.5
B5 | 32.5 ± 9.5
B6 | 25.8 ± 4.2
B7 | 14.5 ± 4.5
B8 | 9 ± 1.2
B9 | ~82
B10 | 26.5 ± 4
B11 | ~17
B12 | 11.7 ± 2.5
B13 | 33.5 ± 10
B14 | 80 ± 40
B15 | 25 ± 6.6
B16 | 32 ± 6.5
B17 | 26 ± 4
B18 | ~80
B19 | 17.3 ± 2.1
B20 | 100 ± 40

Binder | Kd [nM]
B21 | 12.9 ± 1.15
B22 | 30.5 ± 9
B23 | 14.3 ± 2.75
B24 | ~59.5
B25 | 14.8 ± 1.45
B26 | 51 ± 21
B27 | 47.5 ± 15.5
B28 | 22 ± 11
B29 | 11.3 ± 1.85
B30 | 35.5 ± 9.5
B31 | 74 ± 30
B32 | 41.5 ± 8.5
B33 | 20.6 ± 3.8
B34 | 28.5 ± 11
B35 | 9.65 ± 2.55
B36 | 46 ± 4
B37 | 14.7 ± 0.7
B38 | 14.1 ± 1.15
B39 | 16 ± 5
